Laboratory results published in PMC10054699 (Vaccines, 2023).

Target: the molecule itself
Experiment: SEC; Superdex 200 column; purified F1

B1: polymeric F1 protein (F1 capsular antigen of Yersinia pestis) (natural protein)
chain: ADLTASTTATATLVEPARITLTYKEGAPITIMDNGNIDTELLVGTLTLGGYKTGTTSTSVNFTDAAGDPMYLTFTSQDGNNHQFTTKVIGKDSRDFDISPKVNGENLVGDDVVLATGSQDFFVRSIGSKGGKLAAGKYTDAVTVTVSNQ
notes: also called PolyF1; polyF1
B1: binds.
